10 molecules from patent US20240309093A1 (MINGHUI PHARMACEUTICAL HANGZHOU, published 2024) can be followed below.

Test [1] concerns the target PD1 on Jurkat-NFAT-PD1 transgene cells. In words: cell-based or functional assay.
Test [2] addresses T1, recombinant human PD-1-Fc-Biotin (human, UniProt Q15116 25-167, biotin (site not stated)).
T1 construct: also called antigen protein human PD-1; not shown: Fc
In words: competitive ELISA; PD-L1-mFc coated, 0.5 µg/mL PD-1-Fc-Biotin, streptavidin-HRP. On the procedure: The plates were washed three times with PBST. 5% PBS-Milk was added and incubated at room temperature for 1 hr. All the nanobody-Fc fusion proteins were subject to 3-fold gradient dilutions with an initial concentration of 10 μg/mL, added into each well at 30 μL/well, and incubated at room temperature for 1 hr. […] The well plates were washed with PBST between incubations.
For orientation: In an ELISA, binding on a coated surface is turned into a signal by an enzyme label.

In test [3] the target is T2, recombinant human PD-1-his protein (human, UniProt Q15116 25-167).
T2 construct: also called hPD-1-his; not shown: his tag
T2 sequence (Q15116 25-167 limits assumed): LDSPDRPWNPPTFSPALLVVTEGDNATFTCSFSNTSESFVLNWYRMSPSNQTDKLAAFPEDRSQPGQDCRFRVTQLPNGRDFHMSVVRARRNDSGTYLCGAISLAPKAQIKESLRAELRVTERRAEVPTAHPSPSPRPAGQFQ
Briefly: ELISA; PD-1-his coated 2 µg/mL, anti-human IgG Fc-HRP. On the procedure: The plates were washed three times with PBST. 5% PBS-Milk was added and incubated at room temperature for 2 h. The plates were washed three times with PBST. All the nanobody-Fc fusion proteins were subject to 3-fold gradient dilutions with an initial concentration of 10 μg/mL, added into each well at 30 μL/well, and incubated at room temperature for 1 hr. The plates were washed three times with PBST. The secondary antibody Goat-Anti-Human-IgG-Fc-HRP was diluted at 1:8000, added into each well at 30 μL/well, and incubated at room temperature for 50 min. The plates were washed nine times with PBST. TMB was added into each well at 30 μL/well and developed at room temperature in dark for 1 min to 5 min. 2 M hydrochloric acid was added at 30 μL/well to stop the reaction. The OD450 absorbance value was read by a microplate reader. Graphpad Prism software was used to fit the curve and calculate the EC₅₀ value (see Table 7).

Test [4] concerns the target T2, recombinant human PD-1-his protein. In words: ELISA (second round of humanization); PD-1-his coated 2 µg/mL, anti-human IgG Fc-HRP. On the procedure:
96-well ELISA plates were coated with 2 μg/mL of recombinant human PD-1-his antigen protein at 30 μL/well at 4° C. overnight. The plates were washed three times with PBST. 5% PBS-Milk was added and incubated at room temperature for 2 h. The plates were washed three times with PBST. All the nanobody-Fc fusion proteins were subject to 3-fold gradient dilutions with an initial concentration of 10 μg/mL, added into each well at 30 μL/well, and incubated at room temperature for 1 hr. The plates were washed three times with PBST. The secondary antibody Goat-Anti-Human-IgG-Fc-HRP (purchased from Sigma) was diluted at 1:8000, added into each well at 30 μL/well, and incubated at room temperature for 50 min. The plates were washed three times with PBST. TMB (purchased from SurModics) was added into each well at 30 μL/well and developed at room temperature in dark for 1 min to 5 min. 2 M hydrochloric acid was added at 30 μL/well to stop the reaction. The OD450 absorbance value was read by a microplate reader.

T1 sequence (Q15116 25-167 limits assumed): as above

B1: Pembrolizumab (antibody, human IgG4 S228P, kappa, V domains shown)
VH: QVQLVQSGVEVKKPGASVKVSCKASGYTFTNYYMYWVRQAPGQGLEWMGGINPSNGGTNFNEKFKNRVTLTTDSSTTTAYMELKSLQFDDTAVYYCARRDYRFDMGFDYWGQGTTVTVSS
VL: EIVLTQSPATLSLSPGERATLSCRASKGVSTSGYSYLHWYQQKPGQAPRLLIYLASYLESGVPARFSGSGSGTDFTLTISSLEPEDFAVYYCQHSRDLPLTFGGGTKVEIKR
In the case of B1, the “luciferase reporter gene fluorescence signal, Jurkat-NFAT-PD1 effector cells with Hep3B-OS8-PDL1 target cells (EC50)” value in test [1] amounted to 0.091 nM.

B2: MHPD1-A-3 H Fc (Fc fusion, not shown: a dimerising Fc or GST; small tags and cut ends)
VHH: QVQLVESGGGLVQPGGSLRLSCAASGSGRSIYAMGWFRQAPGKGLEFVAGIGWSYATTYYADSVKGRFTISRDNTKNTLYLQMNSLRAEDTAVYYCAADLDHSGFDYWGQGTLVTVSS
In general, IC50 refers to the concentration that inhibits the measured activity by half. One may read the EC50 as the concentration giving half of the maximal effect. Take B2: in test [2], the IC50 was 0.275 nM. The EC50 in test [3] was determined as 0.251 nM. For the same molecule, the “luciferase reporter gene fluorescence signal, Jurkat-NFAT-PD1 effector cells with Hep3B-OS8-PDL1 target cells (EC50)” value in test [1] was found to be 0.078 nM.

B3: MHPD1-A-H19 Fc (Fc fusion, not shown: a dimerising Fc or GST; small tags and cut ends)
VHH: QVQLVESGGGLVQPGGSLRLSCAASGSDPSIYAMGWFRQAPGKGLEFVAGIGWSAATTYYADSVKGRFTISRDNTKNTLYLQMNSLRAEDTAVYYCAADLDHSGFDYWGQGTLVTVSS
notes: Second round of humanization; also called humanized nanobody-Fc fusion protein; parent MHPD1-A-H19 Fc
Turning to B3, the IC50 in test [2] was determined as 1.31 nM. Besides, the EC50 in test [3] was 0.369 nM; in test [4], 0.55 nM.

B4: MHPD1-A-H16 Fc (Fc fusion, not shown: a dimerising Fc or GST; small tags and cut ends)
VHH: QVQLVESGGGLVQPGGSLRLSCAASGSDPSIYAMGWFRQAPGKEHEFVAGIGWSAATTYYADSVKGRFGISRDNTKNTVALLMNSLRAEDTAVYYCAADLDHSGFDYWGQGTLVTVSS
notes: Second round of humanization of MHPD1-A; also called humanized nanobody-Fc fusion protein
Consider B4, for which the EC50 in test [4] was found to be 2.29 nM.

B5: MHPD1-A-H17 Fc (Fc fusion, not shown: a dimerising Fc or GST; small tags and cut ends)
VHH: QVQLVESGGGSVQPGGSLRLSCAASGSDPSIYAMGWFRQAPGKGLEFVAGIGWSAATTYYADSVKGRFTISRDNTKNTLYLQMNSLRAEDTAIYYCAADLDHSGFDYWGQGTLVTVSS
notes: as for B4
For B5, the EC50 in test [4] turned out to be 0.64 nM.

B6: MHPD1-A-H12 Fc (Fc fusion, not shown: a dimerising Fc or GST; small tags and cut ends)
VHH: QVQLVESGGGSVQPGGSLRLSCAASGSDPSIYAMGWFRQAPGKEHEFVAGIGWSAATTYYADSVKGRFTISRDNTKNTLALLMNSLRAEDTAIYYCAADLDHSGFDYWGQGTLVTVSS
notes: as for B4
B6: the EC50 in test [4] turned out to be 4.32 nM.

B7: MHPD1-A-4 H Fc (Fc fusion, not shown: a dimerising Fc or GST)
chain: QVQLVESGGGLVQPGGSLRLSCAASGSVGSIYAMGWFRQAPGKGLEFVAGIGWAFATTYYADSVKGRFTISRDNTKNTLYLQMNSLRAEDTAVYYCAADLDHSGFDYWGQGTLVTVSS
With B7, the IC50 in test [2] stood at 0.281 nM. For the same molecule, the EC50 in test [3] is 0.169 nM. The “luciferase reporter gene fluorescence signal, Jurkat-NFAT-PD1 effector cells with Hep3B-OS8-PDL1 target cells (EC50)” value in test [1] turned out to be 0.09 nM.

B8: MHPD1-A-H15 Fc (Fc fusion, not shown: a dimerising Fc or GST; small tags and cut ends)
VHH: QVQLVESGGGSVQPGGSLRLSCAASGSDPSIYAMGWFRQAPGKEHEFVAGIGWSAATTYYADSVKGRFTISRDNTKNTLYLQMNSLRAEDTAIYYCAADLDHSGFDYWGQGTLVTVSS
notes: as for B4
For the molecule B8, the EC50 in test [4] was found to be 2.15 nM.

B9: MHPD1-A-H18 Fc (Fc fusion, not shown: a dimerising Fc or GST; small tags and cut ends)
VHH: QVQLVESGGGLVQPGGSLRLSCAASGSDPSIYAMGWFRQAPGKGLEFVAGIGWSAATTYYADSVKGRFTISRDNTKNTLYLQMNSLRAEDTAIYYCAADLDHSGFDYWGQGTLVTVSS
notes: as for B4
With B9, the EC50 in test [4] is 1.29 nM.

B10: MHPD1-A-H14 Fc (Fc fusion, not shown: a dimerising Fc or GST; small tags and cut ends)
VHH: QVQLVESGGGSVQPGGSLRLSCAASGSDPSIYAMGWFRQAPGKEHEFVAGIGWSAATTYYADSVKGRFGISRDNTKNTVYLQMNSLRAEDTAIYYCAADLDHSGFDYWGQGTLVTVSS
notes: as for B4
As to B10, the EC50 in test [4] came out at 1.88 nM.
